Data on five molecules can be found in patent publication US20240294640A1 (published 2024).

One may read the EC50 as the concentration giving half of the maximal effect.

In test [1] the target is T1, CD3 naturally expressed on Jurkat cells (human, UniProt P07766 23-207). Briefly: FACS.
Test [2] addresses T1, CD3 naturally expressed on Jurkat cells. Briefly: FACS. This is another data set of the same source. Background: In flow cytometry, cells or beads pass a laser one at a time.

Read-outs that look alike come from different tables or passages of the source.

T1 sequence (P07766 23-207): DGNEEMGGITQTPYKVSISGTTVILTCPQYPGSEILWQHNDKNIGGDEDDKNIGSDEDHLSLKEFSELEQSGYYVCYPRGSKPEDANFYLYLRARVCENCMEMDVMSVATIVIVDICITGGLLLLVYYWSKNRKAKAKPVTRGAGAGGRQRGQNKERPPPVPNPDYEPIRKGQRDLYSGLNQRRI

B1: QP374437481461 (antibody)
chain 1: not shown
chain 2: MEFGLSWLFLVAILKGVQCQVQLVQSGAEVKKPGASVKVSCKASGYTFTSYIMHWVRQAPGQGLEWMGYINPYNDGTKYNEKFKGRVTMTRDTSTSTVYMELSSLRSEDTAVYYCARLGFTTRNAMDYWGQGTLVTVSSASTKGPSVFPLAPSSKSTSGGTAALGCLVKDYFPEPVTVSWNSGALTSGVHTFPAVLQSSGLYSLSSVVTVPSSSLGTQTYICNVNHKPSNTKVDKKVEPKSCESKYGPPCPPCPAPEFLGGPSVFLFPPKPKDTLMISRTPEVTCVVVDVSQEDPEVQFNWYVDGVEVHNAKTKPREEQFNSTYRVVSVLTVLHQDWLNGKEYKCKVSNKGLPSSIEKTISKAKGQPREPQVYTLPPSQEEMTKNQVSLSCAVKGFYPSDIAVEWESNGQPENNYKTTPPVLDSDGSFFLVSRLTVDKSRWQEGNVFSCSVMHEALHNHYTQKSLSLSLGGSSDYKDDDDK
chain 3: not shown
As to B1, the 50% effective concentration (EC50) in test [1] came out at 133 nM.

B2: QP372337241461 (antibody)
chain 1: MEFGLSWLFLVAILKGVQCQVQLVQSGAEVKKPGASVKVSCKASGYTFTSYIMHWVRQAPGQGLEWMGYINPYNDGTKYNEKFKGRVTMTRDTSTSTVYMELSSLRSEDTAVYYCARLGFTTRNAMDYWGQGTLVTVSSASTKGPSVFPLAPSSKSTSGGTAALGCLVKDYFPEPVTVSWNSGALTSGVHTFPAVLQSSGLYSLSSVVTVPSSSLGTQTYICNVNHKPSNTKVDKKVEPKSCGGGGSGGGGSGGGGSEVQLLESGGGLVQPGGSLKLSCAASGFTFNTYAMNWVRQAPGKGLEWVARIRSKYNNYATYYADSVKDRFTISRDDSKNTAYLQMNNLKTEDTAVYYCVRHGNFGNSYVSWFAYWGQGTLVTVSSGGGGSGGGGSGGGGSESKYGPPCPPCPAPEFLGGPSVFLFPPKPKDTLMISRTPEVTCVVVDVSQEDPEVQFNWYVDGVEVHNAKTKPREEQFNSTYRVVSVLTVLHQDWLNGKEYKCKVSNKGLPSSIEKTISKAKGQPREPQVYTLPPSQEEMTKNQVSLSCAVKGFYPSDIAVEWESNGQPENNYKTTPPVLDSDGSFFLVSRLTVDKSRWQEGNVFSCSVMHEALHNHYTQKSLSLSLGGSSDYKDDDDK
chain 2: not shown
chain 3: not shown
In test [1], B2 showed an EC50 of 172 nM.

B3: QP090837493746 (bispecific antibody)
chain 1: not shown
chain 2: not shown
chain 3: QVQLVQSGAEVKKPGASVKVSCKASGYTFTSYIMHWVRQAPGQGLEWMGYINPYNDGTKYNEKFKGRVTMTRDTSTSTVYMELSSLRSEDTAVYYCARLGFTTRNAMDYWGQGTLVTVSSASTKGPSVFPLAPSSKSTSGGTAALGCLVKDYFPEPVTVSWNSGALTSGVHTFPAVLQSSGLYSLSSVVTVPSSSLGTQTYICNVNHKPSNTKVDKKVEPKSC
The molecule B3 yielded an EC50 in test [2] of 64.3 nM.

B4: QP091037493746 (bispecific antibody)
chain 1: not shown
chain 2: not shown
chain 3: QVQLVQSGAEVKKPGASVKVSCKASGYTFTSYIMHWVRQAPGQGLEWMGYINPYNDGTKYNEKFKGRVTMTRDTSTSTVYMELSSLRSEDTAVYYCARLGFTTRNAMDYWGQGTLVTVSSASTKGPSVFPLAPSSKSTSGGTAALGCLVKDYFPEPVTVSWNSGALTSGVHTFPAVLQSSGLYSLSSVVTVPSSSLGTQTYICNVNHKPSNTKVDKKVEPKSC
Molecule B4 yielded an EC50 in test [2] of 34 nM.

B5: QP090937493746 (bispecific antibody)
chain 1: not shown
chain 2: not shown
chain 3: QVQLVQSGAEVKKPGASVKVSCKASGYTFTSYIMHWVRQAPGQGLEWMGYINPYNDGTKYNEKFKGRVTMTRDTSTSTVYMELSSLRSEDTAVYYCARLGFTTRNAMDYWGQGTLVTVSSASTKGPSVFPLAPSSKSTSGGTAALGCLVKDYFPEPVTVSWNSGALTSGVHTFPAVLQSSGLYSLSSVVTVPSSSLGTQTYICNVNHKPSNTKVDKKVEPKSC
B5 showed an EC50 in test [2] of 21.9 nM.
